Assays:
[1] = system: alcohol dehydrogenase from R. erythropolis (RE-ADH, new ADH expr. in E. coli); test: Relative/specific activity of substrates with the new ADH from R. erythropolis (photometric NADH test); type: biochemical, Rhodococcus erythropolis
Method: In this case, as is normal, the measured activity for one compound is set at 100% and the activity/activities of the other compound(s) is determined in relation thereto. From the relative activities when compared with other substrates, it can then be recognised whether such another substrate is accepted to a greater or lesser extent.
A first purification can be achieved by anion exchange chromatography (MonoQ-Material, Pharmacia) (mobile buffer: 50 mM TEA buffer, pH 7.0; elution with a NaCl gradient of 0-1 M).
For the activity test, the cells were harvested (15 min centrifuging at 14000 rpm, 4° C.) and degraded after resuspension with 100 mM KPi buffer, pH 6.0 (1.5 ml of buffer per 1 g of cells). For the purposes of degradation, the suspension was treated with ultrasound (2×30 sec. power 100%, pulse 50), then the cell broth was centrifuged. The supernatant liquid is the soluble crude extract, the sediment is the insoluble fraction.
For a comparison using relative activities, the activity of the two enzymes was given with respect to phenylacetaldehyde=100%.
In this case, the relative activity is given with respect to the activity measured for acetophenone.

[2] = system: aldehyde reductase from Corynebacterium sp.; test: Activity of substrates with aldehyde reductase from Corynebacterium sp. (Itoh et al.); type: biochemical, Corynebacterium sp. ST-10; conditions: Corynebacterium enzyme
From the text: When comparing the gene sequence for ADH from R. erythropolis with sequences in the databases, it was shown that RE-ADH has a high degree of homology with an aldehyde reductase from Coyrnebacterium sp. In the publication on aldehyde reductase, a number of biochemical properties of this enzyme are described (Itoh, N., R. Morihama, J. Wang, K. Okada and N. Mizuguchi (1997), Purification and characterisation of phenylacetaldehyde reductase from a styrene-assimilating Corynebacterium strain, ST-10, Appl. Environ. Microbiol. 63: 3783-378). Some of the (aldehyde) substrates described in that publication were therefore also converted using RE-ADH and compared using the relative activities of the reductase. […] Further comparisons of the two enzymes using the published data material are not meaningful because the enzyme from Corynebacterium was tested exclusively with phenylacetaldehyde as substrate, but RE-ADH has hitherto been characterised using p-Cl-acetophenone.
A comparison of RE-ADH with the aldehyde reductase from Corynebacterium sp. with regard to the activity for acetophenone reduction and a few aldehydes. Data on the enzyme from Corynebacterium were taken from the publication by Itoh et al. (see above), data on RE-ADH are our own measurements (homogeneous=very pure homogeneous enzyme). […]

[3] = system: aldehyde reductase from Corynebacterium sp.; conditions: phenylacetaldehyde = 100%; cited from earlier work
[4] = Thermal stability of the ADH (activity after incubation); type: physicochemical
Method: The advantageous aspects and differences mentioned above with regard to improvement in the stability, as compared with previously known alcohol dehydrogenases from R. erythropolis are summarised in Table 5 and in FIG. 4. For better comparison, the relevant enzyme activity measured at 45° C. was set at 100%.
Here, for the very pure new alcohol hydrogenase, high thermal stabilities were produced over a wide temperature range extending up to 65° C. The stability values in this case are […]

[5] = Specific enzyme activity, standard test with p-Cl-acetophenone and NADH; type: biochemical
Method: For elution, a falling ammonium sulfate gradient (1-0 M) was used; the desired enzyme then eluted at almost 0 M ammonium sulfate. […] The desired protein eluted on application of a falling ammonium sulfate gradient (1-0 M) at about 0.1 M ammonium sulfate. […] The supernatant liquid is the soluble crude extract, the sediment is the insoluble fraction. […] For expression, E. coli BL21 (DE3) was used as host. Recombinant cells were multiplied in the medium LBcam at 37° C. At an OD600 of 0.5, expression was induced with 25 μM IPTG, then the cells were multiplied for 12 h at 30° C. The cells were harvested after centrifuging for 15 min at 5000 rpm, the sediment was resuspended in 100 mM Kpi buffer (1.5 ml per 1 g of cells) and broken down using ultrasound.

[6] = pH optimum for the activity and stability of RE-ADH; type: biochemical; conditions: 4° C. and room temperature, 1 and 2 days, pH range 7.5-8.5, tris-HCl buffer 0.1 M
From the text: The pH optimum for RE-ADH is at pH 6.0 for the reduction reaction (measured using p-Cl-acetophenone).

[7] = Activity of immobilised RE-ADH (Eupergit, Ni-NTA) with p-Cl-acetophenone, GC; type: biochemical; conditions: for activity of the immobilised enzyme: 30° C.
Method: Eupergit C® and Eupergit C 250L® were used in parallel batches, each being loaded with partially purified RE-ADH (literature reference relating to Eupergit immobilisation: E. Katchalski-Katzir, D. M. Kraemer, J. Mol. Catal. B: Enzym. 2000, 10, 157). The following was used for the test: • 1.5 mM p-Cl-acetophenone (dissolved in 0.1 M Na formate buffer, 0.05 M KPi buffer, pH 6.0) • 0.5 mM NAD • 30 mg immobilisate • 1 U/ml formate dehydrogenase (FDH)
These test materials were incubated at 30° C., a sample (100 μl) was taken from each mix after 0, 5, 10 and 15 min, this was extracted with 100 μl of chloroform and the chloroform phase was analysed for any phenylethanol formed using gas chromatography. The activity of the immobilised enzyme can be calculated from the kinetics of phenylethanol formation and values of 11.8 U/g support for Eupergit C® and 8 U/g of support for Eupergit C 250L® were obtained. With respect to the amount of enzyme used, this corresponded to coupling yields of 1% (Eupergit ®) and 0.8% (Eupergit C 250L®). • b) Immobilising on Ni-NTA
Recombinant E. coli JM105/pRE-ADH5 cells were broken down in an imidazole-containing buffer (50 mM NaH2PO4; 300 mM NaCl; 10 mM imidazole, pH 8.0) and a crude extract was prepared in the way described previously. For immobilisation, 1 ml of enzyme solution (13 U/ml RE-ADH, crude extract from the culture E. coli JM105pRE-ADH5; 8 mg/ml of protein) was added to 300 mg of Ni-NTA support material (Quiagen) and incubated for 10 min at 0° C. (ice bath). After centrifuging the suspension, 3 U/ml could still be detected as residual activity in the supernatant liquid as non-bonded enzyme. The immobilisate was reacted with p-Cl-acetophenone to detect the bonded activity.
For this purpose, the following were used per 1 ml of total volume:
3 mM p-Cl-acetophenone (substrate; dissolved in 100 mM Na formate, 50 mM Kpi buffer pH 6.0)
1 U formate dehydrogenase
The test batch was incubated in the same way as described above (immobilisation on Eupergit®), samples were taken and these were analysed using gas chromatography. […] Taking into account the fact that this test was performed with 30 mg of immobilisate and that 10 U RE-ADH had bonded to 300 mg of support material, 1 U was thus introduced in the test batch with the 30 mg. Since an activity of 0.21 U was reported, an immobilisation yield of 21% was obtained. The enantiomer purity (ee value) of the alcohol formed with the immobilisate was >99%.

For `CCCCCCCC=O` [Caprylic aldehyde], the “activity towards caprylic aldehyde as multiple of that towards acetophenone (so in the source)” value ([1]; RE-ADH) was “about 5 times”, the relative activity ([1]; phenylacetaldehyde = 100%) was 522% and the “activity towards caprylic aldehyde as multiple of that with respect to acetophenone (so in the source)” value [2] was 12 times. For the same molecule, the relative activity [3] was 1220%.

B1: RE-ADH: alcohol dehydrogenase (ADH, RE-ADH) from Rhodococcus erythropolis, Seq. ID NO: 2, tetrameric; also with C-terminal His-Tag or immobilised (protein, listed as Rhodococcus erythropolis)
chain: MKAIQYTRIGAEPELTEIPKPEPGPGEVLLEVTAAGVCHSDDFIMSLPEEQYTYGLPLTLGHEGAGKVAAVGEGVEGLDIGTNVVVYGPWGCGNCWHCSQGLENYCSRAQELGINPPGLGAPGALAEFMIVDSPRHLVPIGDLDPVKTVPLTDAGLTPYHAIKRSLPKLRGGSYAVVIGTGGLGHVAIQLLRHLSAATVIALDVSADKLELATKVGAHEVVLSDKDAAENVRKITGSQGAALVLDFVGYQPTIDTAMAVAGVGSDVTIVGIGDGQAHAKVGFFQSPYEASVTVPYWGARNELIELIDLAHAGIFDIAVETFSLDNGAEAYRRLAAGTLSGRAVVVPGL
modifications: optional C-terminal His-tag or immobilisation
notes: ID NO: 2, tetrameric; also with C-terminal His-Tag or immobilised
With B1 the “enzyme activity after incubation” value ([4]; 10 min at 45° C.) was “(110 U/ml)”, the “relative enzyme activity after incubation” value (“relative enzyme activity” for short) ([4]; 10 min at 45° C.) was 95% and the “enzyme activity after incubation” value ([4]; 10 min at 50° C.) was “(110 U/ml)”. The “relative enzyme activity” value ([4]; 10 min at 50° C.) was 95%, the “enzyme activity after incubation” value ([4]; 10 min at 55° C.) was “(115 U/ml)” and the “relative enzyme activity” value ([4]; 10 min at 55° C.) was 99%. The “enzyme activity after incubation” value ([4]; 10 min at 60° C.) was “(112 U/ml)”, the “relative enzyme activity” value ([4]; 10 min at 60° C.) was 97% and the “enzyme activity after incubation” value ([4]; 10 min at 65° C.) was “(116 U/ml)”. For the same molecule, the “relative enzyme activity” value ([4]; 10 min at 65° C.) was 100%, the “activity in the crude extract” value ([5]; crude extract from R. erythropolis) was “about 2.5 U/mg” and the enzyme activity ([5]; hexa-histidine group at the C-terminus, pRE-ADH5 in E. coli JM105) was 7 U/mg. For the same molecule, the “ADH activity in the crude extract” value ([5]; plasmid pKK223-3, E. coli JM 105, soluble fraction) was 6 U/mg, the “ADH activity in the crude extract” value ([5]; plasmid pKK223-3, E. coli JM 105, soluble fraction, listed as ADH according to the invention) was “about 6 U/mg” and the “ADH activity in the crude extract” value ([5]; vector pKA1, E. coli BL21 (DE3), cell-free crude extract) was 70 U/mg. For the same molecule, the “ADH activity in the crude extract” value ([5]; vector pKA1, E. coli BL21 (DE3), cell-free crude extract, listed as ADH) was 70 U/mg, the “ADH activity in the crude extract” value ([5]; vector pKA1, E. coli BL21 (DE3), cell-free crude extract, listed as ADH according to the invention) was “about 70 U/mg” and the deactivation on storage [6] was “no deactivation”. The “enantiomer purity (ee value) of the alcohol formed with the immobilisate” value ([7]; His-Tag enzyme on Ni-NTA) was over 99%, the “activity of the immobilisate” value ([7]; His-Tag enzyme on Ni-NTA, 30 mg immobilisate, 3 mM p-Cl-acetophenone) was 0.21 U and the “activity of the immobilised enzyme” value ([7]; immobilised on Eupergit C 250L) was 8 U/g of support. The “activity of the immobilised enzyme” value ([7]; immobilised on Eupergit C) was 11.8 U/g support.
